Target: T1, Cyt1Aa (Bacillus thuringiensis subsp. …, UniProt P0A382)
T1 chain: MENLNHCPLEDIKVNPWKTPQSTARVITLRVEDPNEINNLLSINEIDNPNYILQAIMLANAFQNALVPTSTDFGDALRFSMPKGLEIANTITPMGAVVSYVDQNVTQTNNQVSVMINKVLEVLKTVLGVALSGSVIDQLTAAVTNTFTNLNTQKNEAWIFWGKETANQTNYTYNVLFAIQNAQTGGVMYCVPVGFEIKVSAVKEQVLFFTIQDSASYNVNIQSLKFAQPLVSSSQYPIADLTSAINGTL
Experiment: ELISA

B1: Cry4Ba (protein)
chain: NSGYPLANDLQGSMKNTNYKDWLAMCENNQQYGVNPAAINSSSVSTALKVAGAILKFVNPPAGTVLTVLSAVLPILWPTNTPTPERVWNDFMTNTGNLIDQTVTAYVRTDANAKMTVVKDYLDQYTTKFNTWKREPNNQSYRTAVITQFNLTSAKLRETAVYFSNLVGYELLLLPIYAQVANFNLLLIRDGLINAQEWSLARSAGDQLYNTMVQYTKEYIAHSITWYNKGLDVLRNKSNGQWITFNDYKREMTIQVLDILALFASYDPRRYPADKIDNTKLSKTEFTREIYTALVESPSSKSIAALEAALTRDVHLFTWLKRVDFWTNTIYQDLRFLSANKIGFSYTNSSAMQESGIYGSSGFGSNLTHQIQLNSNVYKTSITDTSSPSNRVTKMDFYKIDGTLASYNSNITPTPEGLRTTFFGFSTNENTPNQPTVNDYTHILSYIKTDVIDYNSNRVSFAWTHKIVDPNNQIYTDAITQVPAVKSNFLNATAKVIKGPGHTGGDLVALTSNGTLSGRMEIQCKTSIFNDPTRSYGLRIRYAANSPIVLNVSYVLQGVSRGTTISTESTFSRPNNIIPTDLKYEEFRYKDPFDAIVPMRLSSNQLITIAIQPLNMTSNNQVIIDRIEIIPITQSVLDETENQNLESEREVVNALFTNDAKDALNIGTTDYDIDQAANLVECISEELYPKEKMLLLDEVKNAKQLSQSRNVLQNGDFESATLGWTTSDNITIQEDDPIFKGHYLHMSGARDIDGTIFPTYIFQKIDESKLKPYTRYLVRGFVGSSKDVELVVSRYGEEIDAIMNVPADLNYLYPSTFDCEGSNRCETSAVPANIGNTSDMLYSCQYDTGKKHVVCQDSHQFSFTIDTGALDTNENIGVWVMFKISSPDGYASLDNLEVIEEGPIDGEALSRVKHMEKKWNDQMEAKRSETQQAYDVAKQAIDALFTNVQDEALQFDTTLAQIQYAEYLVQSIPYVYNDWLSDVPGMNYDIYVELDARVAQARYLYDTRNIIKNGDFTQGVMGWHVTGNADVQQIDGVSVLVLSNWSAGVSQNVHLQHNHGYVLRVIAKKEGPGNGYVTLMDCEENQEKLTFTSCEEGYITKTVDVFPDTDRVRIEIGETEGSFYIESIELICMNE
modifications: trypsin-activated Cry4Ba, proteinase K-activated Cyt1Aa
Kd: 47 nM
